Two molecules from US20230288399A1 (FNCT BIOTECH, published 2023) can be followed below.

The target of experiment [1] is T1, SRC (UniProt P12931 2-536).
T1 construct: Endogenous protein in colorectal cancer cell lysates or cells; also called p-SRC (phosphorylated form)
In words: co-immunoprecipitation in SW-480 and HCT-116 colorectal cancer cells. The source says: As a result of performing immunoprecipitation to confirm the expression correlation between ICAM-1 and SRC in SW-480 and HCT-116 colorectal cancer cells, it was confirmed that ICAM-1 binds to SRC endogenously, as shown in FIG. 3D.

Experiment [2] deals with T1, SRC. In words: immunoprecipitation with ICAM-1 Tyr512 mutants. As to the method: Furthermore, in order to confirm that ICAM-1 binds to SRC by a specific residue, an immunoprecipitation reaction was performed using a mutant with phosphomimetics form that inhibits (Y512A) or activates (Y512D) the Tyr512 phosphorylation residue of ICAM-1.

Changes are numbered by the printed parent chain. Names and notes keep the numbering of the source.

B1: intracellular adhesion molecule 1 (ICAM-1) (receptor)
chain: QTSVSPSKVILPRGGSVLVTCSTSCDQPKLLGIETPLPKKELLLPGNNRKVYELSNVQEDSQPMCYSNCPDGQSTAKTFLTVYWTPERVELAPLPSWQPVGKNLTLRCQVEGGAPRANLTVVLLRGEKELKREPAVGEPAEVTTTVLVRRDHHGANFSCRTELDLRPQGLELFENTSAPYQLQTFVLPATPPQLVSPRVLEVDTQGTVVCSLDGLFPVSEAQVHLALGDQRLNPTVTYGNDSFSAKASVSVTAEDEGTQRLTCAVILGNQSQETLQTVTIYSFPAPNVILTKPEVSEGTEVTVKCEAHPRAKVTLNGVPAQPLGPRAQLLLKATPEDNGRSFSCSATLEVAGQLIHKNQTRELRVLYGPRLDERDCPGNWTWPENSQQTPMCQAWGNPLPELKCLKDGTFPLPIGESVTVTRDLEGTYLCRARSTQGEVTRKVTVNVLSPRYEIVIITVVAAAVIMGTAGLSTYLYNRQRKIKKYRLQQAQKGTPMKPNTQATPP
notes: The assay used the endogenous protein of SW-480 and HCT-116 cells
On to B1, for which, in the experiment with SRC [1], the binding result was “binds”.

B2: ICAM-1 Y512D mutant (receptor)
chain: B1 chain with Y485D
As for B2, the binding result in the experiment with SRC [2] is “binds”.
